Measured values taken from publication PMC4538830.

Target: T1, full-length recombinant His tagged CTNNBL1 (human), Q8WYA6
T1 chain: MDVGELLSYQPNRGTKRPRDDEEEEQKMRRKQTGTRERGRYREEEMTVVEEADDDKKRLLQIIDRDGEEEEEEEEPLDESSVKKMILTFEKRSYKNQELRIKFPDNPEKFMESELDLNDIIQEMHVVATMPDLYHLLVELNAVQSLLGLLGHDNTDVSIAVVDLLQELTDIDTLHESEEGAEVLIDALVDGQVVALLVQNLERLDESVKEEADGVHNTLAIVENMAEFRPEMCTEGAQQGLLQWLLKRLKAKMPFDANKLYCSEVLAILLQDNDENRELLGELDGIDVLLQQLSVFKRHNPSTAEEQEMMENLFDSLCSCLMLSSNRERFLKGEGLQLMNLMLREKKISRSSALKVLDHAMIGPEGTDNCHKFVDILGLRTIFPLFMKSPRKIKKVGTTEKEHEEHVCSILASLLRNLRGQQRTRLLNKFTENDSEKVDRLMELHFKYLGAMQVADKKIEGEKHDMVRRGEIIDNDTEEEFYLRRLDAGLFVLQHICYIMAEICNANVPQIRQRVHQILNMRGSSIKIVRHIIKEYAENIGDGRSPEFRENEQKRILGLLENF
Assay: SEC-MALS; CTNNBL1 (full length or [77–563]) alone; also in high salt buffer (0.5 M NaCl) or with CWC15[80–229] added; Supplementary Figure S7
Conditions: remark: other sources report otherwise

- stoichiometry N: 3
B1: full-length recombinant His tagged CTNNBL1, Q8WYA6 1-563 (natural protein)
chain: MDVGELLSYQPNRGTKRPRDDEEEEQKMRRKQTGTRERGRYREEEMTVVEEADDDKKRLLQIIDRDGEEEEEEEEPLDESSVKKMILTFEKRSYKNQELRIKFPDNPEKFMESELDLNDIIQEMHVVATMPDLYHLLVELNAVQSLLGLLGHDNTDVSIAVVDLLQELTDIDTLHESEEGAEVLIDALVDGQVVALLVQNLERLDESVKEEADGVHNTLAIVENMAEFRPEMCTEGAQQGLLQWLLKRLKAKMPFDANKLYCSEVLAILLQDNDENRELLGELDGIDVLLQQLSVFKRHNPSTAEEQEMMENLFDSLCSCLMLSSNRERFLKGEGLQLMNLMLREKKISRSSALKVLDHAMIGPEGTDNCHKFVDILGLRTIFPLFMKSPRKIKKVGTTEKEHEEHVCSILASLLRNLRGQQRTRLLNKFTENDSEKVDRLMELHFKYLGAMQVADKKIEGEKHDMVRRGEIIDNDTEEEFYLRRLDAGLFVLQHICYIMAEICNANVPQIRQRVHQILNMRGSSIKIVRHIIKEYAENIGDGRSPEFRENEQKRILGLLENF
